Measurements reported in patent US6458943 (INSTITUT NATIONAL DE LA SANTE ET DE LA RECHERCHE MEDICALE, dated 2002).

B1: hD52 interactor (GAL4 activation domain fusion, pAD-GAL4hD52) (other)
chain: PSALFGGANFNQSGNIADSSLSFTFTNSSNGPNLITTQTNSQALSQPIASSNVHDNFMNNEITASKIDDGNNSKPLSPGWTDQTAYNAFGITTGMFNTTTMDDVYNYLFDDEDTPPNPKKEMDRGEQGLLRTDPVPEEGEDVAATISATETLSEEEQEELRRELAKVEEEIQTLSQVLAAKEKHLAEIKRKLGINSLQELKQNIAKGWQDVTATSAYKKTSETLSQAGQKASAAFSSVGSVITKKLEDVKNSPTFKSFEEKVENLKSKVGGTKPAGGDFGEVLNSAANASATTTEPLPEKTQESL
notes: range 761-881; also called hD52^c
B2: hD53 interactor (GAL4 activation domain fusion, pACT2hD53) (other)
chain: ANFNQSGNIADSSLSFTFTNSSNGPNLITTQTNSQALSQPIASSNVHDNFMNNEITASKIDDGNNSKPLSPGWTDQTAYNAFGITTGMFNTTTMDDVYNYLFDDEDTPPNPKKEMEAQAQGLLETEPLQGTDEDAVASADFSSMLSEEEKEELKAELVQLEDEITTLRQVLSAKERHLVEIKQKLGMNLMNELKQNFSKSWHDMQTTTAYKKTHETLSHAGQKATAAFSNVGTAISKKFGDMSYSIRHSISMPAMRNSPTFKSFEERVETTVTSLKTKVGGTNPNGGSFEEVLSSTAHASAQSLAGGSRRTKEEELQC
notes: range 768-881
B3: mD52(1-163) interactor (GAL4 activation domain fusion, pACT2mD52(1-163)) (other)
chain: ANFNQSGNIADSSLSFTFTNSSNGPNLITTQTNSQALSQPIASSNVHDNFMNNEITASKIDDGNNSKPLSPGWTDQTAYNAFGITTGMFNTTTMDDVYNYLFDDEDTPPNPKKEMDRGEQGLLKTEPVAEEGEDAVTMLSAPEALTEEEQEELRRELTKVEEEIQTLSQVLAAKEKHLAELKRKLGISSLQEFKQNIAKGWQDVTATNAYKKTSETLSQAGQKASAAFSSVGSVITKKLEDVKNSPTFKSFEEKVENLKSKVGGAKPAGGDFGEVLN
notes: range 768-881
B4: hD54+ins2 interactor (GAL4 activation domain fusion, pACT2hD54+ins2) (other)
chain: ANFNQSGNIADSSLSFTFTNSSNGPNLITTQTNSQALSQPIASSNVHDNFMNNEITASKIDDGNNSKPLSPGWTDQTAYNAFGITTGMFNTTTMDDVYNYLFDDEDTPPNPKKEMDSAGQDINLNSPNKGLLSDSMTDVPVDTGVAARTPAVEGLTEAEEEELRAELTKVEEEIVTLRQVLAAKEKHCGELKRRLGLSTLGELKQNLSRSWHDVQVSSAYVKTSEKLGEWNEKVTQSDLYKKTQETLSQAGQKTSAALSTVGSAISRKLGDMRNSATFKSFEDRVGTIKSKVVGDRENGSDNLPSSAGSGDKPLSDPAPF
notes: range 768-881
B5: hD54-ins2 interactor (GAL4 activation domain fusion, pACT2hD54-ins2) (other)
chain: ANFNQSGNIADSSLSFTFTNSSNGPNLITTQTNSQALSQPIASSNVHDNFMNNEITASKIDDGNNSKPLSPGWTDQTAYNAFGITTGMFNTTTMDDVYNYLFDDEDTPPNPKKEMDSAGQDINLNSPNKGLLSDSMTDVPVDTGVAARTPAVEGLTEAEEEELRAELTKVEEEIVTLRQVLAAKEKHCGELKRRLGLSTLGELKQNLSRSWHDVQVSSAYKKTQETLSQAGQKTSAALSTVGSAISRKLGDMRNSATFKSFEDRVGTIKSKVVGDRENGSDNLPSSAGSGDKPLSDPAPF
notes: range 768-881
B6: hD53 library interactor, pAD-GAL4 clone beginning at nt 111 of the hD53 cDNA (<Met1) (other)
chain: PSALFGGANFNQSGNIADSSLSFTFTNSSNGPNLITTQTNSQALSQPIASSNVHDNFMNNEITASKIDDGNNSKPLSPGWTDQTAYNAFGITTGMFNTTTMDDVYNYLFDDEDTPPNPKKEMEAQAQGLLETEPLQGTDEDAVASADFSSMLSEEEKEELKAELVQLEDEITTLRQVLSAKERHLVEIKQKLGMNLMNELKQNFSKSWHDMQTTTAYKKTHETLSHAGQKATAAFSNVGTAISKKFGDMSYSIRHSISMPAMRNSPTFKSFEERVETTVTSLKTKVGGTNPNGGSFEEVLSSTAHASAQSLAGGSRRTKEEELQC
notes: range 761-881; also called nt 111 (<Met^1)
B7: hD53 library interactor, pAD-GAL4 clone beginning at nt 81 of the hD53 cDNA (<Met1) (other)
chain: B6 chain
notes: range 761-881; also called nt 81 (<Met^1)
B8: +5 hD53 library interactor (novel hD53 isoform, pAD-GAL4 clone) (other)
chain: PSALFGGANFNQSGNIADSSLSFTFTNSSNGPNLITTQTNSQALSQPIASSNVHDNFMNNEITASKIDDGNNSKPLSPGWTDQTAYNAFGITTGMFNTTTMDDVYNYLFDDEDTPPNPKKESSWLPWSEVLHRPWRNHPICLLETEPLQGTDEDAVASADFSSMLSEEEKEELKAELVQLEDEITTLRQVLSAKERHLVEIKQKLGMNLMNELKQNFSKSWHDMQTTTAYKKTHETLSHAGQKATAAFSNVGTAISKKFGDMRRK
notes: range 761-881; also called nt 1 (Ser^1)
B9: in vitro-translated 35S-labelled hD52 (pTL1hD52) (other)
chain: MDRGEQGLLRTDPVPEEGEDVAATISATETLSEEEQEELRRELAKVEEEIQTLSQVLAAKEKHLAEIKRKLGINSLQELKQNIAKGWQDVTATSAYKKTSETLSQAGQKASAAFSSVGSVITKKLEDVKNSPTFKSFEEKVENLKSKVGGTKPAGGDFGEVLNSAANASATTTEPLPEKTQESL
modifications: 35S-methionine label
B10: in vitro-translated 35S-labelled hD54-ins2 (pTL1hD54-ins2) (other)
chain: MDSAGQDINLNSPNKGLLSDSMTDVPVDTGVAARTPAVEGLTEAEEEELRAELTKVEEEIVTLRQVLAAKEKHCGELKRRLGLSTLGELKQNLSRSWHDVQVSSAYKKTQETLSQAGQKTSAALSTVGSAISRKLGDMRNSATFKSFEDRVGTIKSKVVGDRENGSDNLPSSAGSGDKPLSDPAPF
modifications: 35S-methionine label
B11: in vitro-translated 35S-labelled mD52 (pTL1mD52) (other)
chain: MDRGEQGLLKTEPVAEEGEDAVTMLSAPEALTEEEQEELRRELTKVEEEIQTLSQVLAAKEKHLAELKRKLGISSLQEFKQNIAKGWQDVTATNAYKKTSETLSQAGQKASAAFSSVGSVITKKLEDVKNSPTFKSFEEKVENLKSKVGGAKPAGGDFGEVLNSTANATSTMTTEPPPEQMTESP
modifications: 35S-methionine label

target: T1, hD52 bait (GAL4 DNA-binding domain fusion, pAS2-1hD52) (human, UniProt P04386 1-147 (Saccharomyces cerevisiae entry)); experiment: yeast two-hybrid, Y190 co-transfectants, HIS3/lacZ reporters; interactor (GAL4-AD fusion) against bait (GAL4-DB fusion)
T1 construct: Fusion expressed in yeast; also called full-length hD52 bait
Experimental: (§1) Interactions between baits and interactors were assessed by qualitatively and/or quantitatively determining HIS3 and/or lacZ reporter gene activity in Y190 co-transfectants.
(§2) Interactions between D52-like proteins within the yeast two-hybrid system, as measured by quantitative β-galactosidase assays. […] Three (or two*) colonies from each co-transfected Y190 strain were cultured in the absence of histidine, and assayed separately for β-galactosidase activity (see Methods). The mean number of β-galactosidase activity units obtained for each co-transfection is presented, ± the standard error.

Row | Binder | binding result
1 | B1 | binds
2 | B2 | binds
3 | B3 | binds
4 | B4 | binds
5 | B5 | binds

target: T2, hD53 bait (GAL4 DNA-binding domain fusion, pAS2-1hD53) (human, UniProt P04386 1-147 (Saccharomyces cerevisiae entry)); experiment: as above
T2 construct: Fusion expressed in yeast; also called full-length hD53 bait
Experimental: as §1, §2

Row | Binder | binding result
6 | B2 | binds
7 | B3 | binds
8 | B4 | binds
9 | B5 | binds

target: T3, hD54-ins2 bait (GAL4 DNA-binding domain fusion, pAS2-1hD54-ins2) (human, UniProt P04386 1-147 (Saccharomyces cerevisiae entry)); experiment: as above
T3 construct: Fusion expressed in yeast
Experimental: as §1, §2

Row | Binder | binding result
10 | B1 | binds
11 | B2 | binds
12 | B3 | binds
13 | B4 | binds
14 | B5 | binds

target: T4, hD54+ins2 bait (GAL4 DNA-binding domain fusion, pAS2-1hD54+ins2) (human, UniProt P04386 1-147 (Saccharomyces cerevisiae entry)); experiment: as above
T4 construct: Fusion expressed in yeast
Experimental: as §1, §2

Row | Binder | binding result
15 | B1 | binds
16 | B2 | binds
17 | B3 | binds
18 | B4 | binds
19 | B5 | binds

target: T2, hD53 bait (GAL4 DNA-binding domain …); experiment: yeast two-hybrid screening of a human breast carcinoma cDNA library in Y190 (His+ lacZ+)

Row | Binder | binding result
20 | B1 | binds
21 | B6 | binds
22 | B7 | binds
23 | B8 | binds

target: GST protein (glutathione S-transferase alone) (UniProt P08515 1-218 = GST); experiment: GST pull-down, autoradiography
Sequence (P08515 whole entry): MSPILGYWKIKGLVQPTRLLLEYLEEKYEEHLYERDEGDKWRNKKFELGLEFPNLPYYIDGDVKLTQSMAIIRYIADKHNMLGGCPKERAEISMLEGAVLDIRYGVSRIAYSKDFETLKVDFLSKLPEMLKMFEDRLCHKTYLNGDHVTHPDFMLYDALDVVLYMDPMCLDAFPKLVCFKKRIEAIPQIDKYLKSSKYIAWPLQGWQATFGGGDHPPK
Experimental: Proteins were isolated by incubating E. coli samples in isotonic lysis buffer (10 mM potassium phosphate pH 8.0, 140 mM KCl, 3 mM MgCl_2, 1 mM DTT, 0.5% Nonidet P-40, 0.5 mM PMSF) for 15 min on wet ice, followed by brief sonication. Protein product sizes were verified by electrophoresing pre- and post-induction protein samples on 10% SDS-polyacrylamide gels, followed by Coomassie Brilliant Blue staining. Post-induction protein extracts were incubated with glutathione-agarose (Sigma) which had been previously saturated in 0.5% (w/v) BSA (fraction V, Boehringer-Mannheim). Recombinant proteins (2–5 μg) bound to 30 μl glutathione agarose were then incubated with 7 μl of each in vitro translation reaction, and 2.6 mg soluble BL21 protein extract, prepared as described in Ausubel, F. M., el al., *Current Protocols in Molecular Biology* Vol. 3 (1996), for 2 h at 4° C. Matrixes were washed 3 times with 1 ml cold buffer (50 mM potassium phosphate pH 7.5, 150 mM KCl, 10 mM MgCl_2, 10% (v/v) glycerol, 1% Triton X-100, 0.5 mM PMSF), and bound proteins were eluted in 12 μl SDS-loading buffer (50 mM Tris pH 6.8, 2% (w/v) SDS, 10% (v/v) glycerol, 10% (v/v) 2-mercaptoethanol) by boiling for 5 min. Eluted proteins (6 μl) were separated on 10% SDS-polyacrylamide gels, which were stained with Coomassie Brilliant Blue, dried, and exposed to autoradiographic film (BioMax, Kodak) for 10 days at −80° C.

Row | Binder | binding result
24 | B9 | no binding
25 | B10 | no binding
26 | B11 | no binding
